Changes are numbered by the printed parent chain. Names and notes keep the numbering of the source.

One test deals with T1, human PSMA (human, UniProt Q04609 1-750).
T1 construct: whole, on cells; also called prostate-specific membrane antigen
Description: Pepscan ELISA, 15-mer peptides of the extracellular domain of human PSMA.

A further test concerns the target T2, 1-27 CD3-Fc (human).
T2 construct: assigned to this molecule; also called 1-27 CD3ε-Fc; 27 aa huCD3E
Briefly: ELISA, periplasmic scFv on captured 1-27 CD3-Fc.

For a further test, the target named is T3, swine 1-27 CD3ε-EpCAM (Sus scrofa).
T3 construct: negative control; also called 1-27 CD3-EpCAM comprising the swine 27 mer
T3 chain: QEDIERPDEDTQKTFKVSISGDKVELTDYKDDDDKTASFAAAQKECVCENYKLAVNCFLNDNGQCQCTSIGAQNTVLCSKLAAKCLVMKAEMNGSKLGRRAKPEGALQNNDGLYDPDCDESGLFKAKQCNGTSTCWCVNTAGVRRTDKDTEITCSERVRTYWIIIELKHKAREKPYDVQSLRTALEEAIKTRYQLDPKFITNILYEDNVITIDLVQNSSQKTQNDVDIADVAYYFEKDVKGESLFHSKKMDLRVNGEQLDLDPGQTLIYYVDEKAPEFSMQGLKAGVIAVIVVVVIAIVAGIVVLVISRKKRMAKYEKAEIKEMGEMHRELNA
Briefly: FACS, 293-HEK transfectants.

The next test addresses T4, tamarin 1-27 CD3ε-EpCAM (Saguinus oedipus).
T4 construct: also called 1-27 CD3-EpCAM comprising the tamarin 27 mer
T4 chain: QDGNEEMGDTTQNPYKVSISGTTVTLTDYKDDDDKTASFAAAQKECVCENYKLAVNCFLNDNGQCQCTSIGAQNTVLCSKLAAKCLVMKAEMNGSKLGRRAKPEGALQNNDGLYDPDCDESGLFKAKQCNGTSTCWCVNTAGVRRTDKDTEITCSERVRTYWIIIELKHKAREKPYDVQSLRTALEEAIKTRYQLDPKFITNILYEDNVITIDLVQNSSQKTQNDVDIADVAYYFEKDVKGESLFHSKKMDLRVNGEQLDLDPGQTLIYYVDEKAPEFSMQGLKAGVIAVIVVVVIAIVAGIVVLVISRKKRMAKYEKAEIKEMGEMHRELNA
Description: FACS, 293-HEK transfectants.

The target of another test is T5, marmoset 1-27 CD3ε-EpCAM (Callithrix jacchus).
T5 construct: also called 1-27 CD3-EpCAM comprising the marmoset 27 mer
T5 chain: T4 chain
Briefly: FACS, 293-HEK transfectants.

The next test concerns the target T6, human 1-27 CD3ε-EpCAM (human).
T6 construct: also called 1-27 CD3-EpCAM comprising the human 27 mer
T6 chain: T4 chain with D9G, T10I, N13T, T25I
Description: FACS, 293-HEK transfectants.

Test [1] deals with T7, squirrel monkey 1-27 CD3ε-EpCAM (Saimiri sciureus).
T7 construct: also called 1-27 CD3-EpCAM comprising the squirrel monkey 27 mer
T7 chain: T4 chain with M7I
Description: FACS, 293-HEK transfectants.

T1 sequence (Q04609 whole entry): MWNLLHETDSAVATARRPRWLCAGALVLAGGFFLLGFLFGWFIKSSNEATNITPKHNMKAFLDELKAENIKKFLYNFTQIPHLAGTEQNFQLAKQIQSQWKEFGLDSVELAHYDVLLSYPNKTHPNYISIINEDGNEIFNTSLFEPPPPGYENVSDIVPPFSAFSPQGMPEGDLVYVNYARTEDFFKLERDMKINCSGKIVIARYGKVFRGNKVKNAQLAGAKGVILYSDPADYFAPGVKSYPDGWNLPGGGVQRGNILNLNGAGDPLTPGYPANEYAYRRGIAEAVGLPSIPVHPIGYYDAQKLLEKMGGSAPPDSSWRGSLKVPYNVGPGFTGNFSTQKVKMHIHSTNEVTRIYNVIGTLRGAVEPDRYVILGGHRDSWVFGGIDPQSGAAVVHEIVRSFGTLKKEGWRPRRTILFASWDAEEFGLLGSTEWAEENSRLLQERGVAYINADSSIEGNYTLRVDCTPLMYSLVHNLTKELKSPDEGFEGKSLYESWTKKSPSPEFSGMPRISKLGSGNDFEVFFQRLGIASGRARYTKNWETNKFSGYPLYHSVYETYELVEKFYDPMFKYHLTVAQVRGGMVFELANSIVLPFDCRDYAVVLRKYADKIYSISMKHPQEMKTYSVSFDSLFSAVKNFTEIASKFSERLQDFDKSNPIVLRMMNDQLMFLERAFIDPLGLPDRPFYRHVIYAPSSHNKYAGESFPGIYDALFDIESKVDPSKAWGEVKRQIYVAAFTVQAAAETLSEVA
Description for human PSMA: These three PSMA BiTE antibodies were subjected to an alternative epitope mapping approach based on peptide scanning (Pepscan). Pepscan uses overlapping peptides of a given protein and analyses antibody binding to immobilized peptides by enzyme-linked immunosorbent assays (ELISAs). The epitope mapping experiments with PSMA BiTE antibodies were performed at the company Pepscan (Lelystad, The Netherlands).
These peptides were coated to ELISA wells in a 384-well plate format. […] To this end 7 ml of crude periplasmic extracts were shipped on dry ice to Pepscan (The Netherlands). Using scFv counterparts in this assay minimized the risk to pick up signals from the second non-PSMA binding specificity of the BiTE antibodies, which may lead to misinterpretation of the PSMA binding epitopes of the target binders. The scFvs were incubated with the peptides and specific binding detected using an anti-His antibody. Binding signals were measured in a 384-well ELISA reader.

B1: scFv F1-A10 (scFv)
scFv: EVQLLESGGGLVQPGGSLRLSCAASGFTFSDFFMAWVRQAPGRGLEWVSTIVSDGGSTYYRDSVKGRFTISRDNSKNTLYLQMNSLRAEDTAVYYCARRGNSGYYVMDAWGQGTTVTVSSGGGGSGGGGSGGGGSDIQMTQSPSTLSASVGDRVTITCRASSSVTYMHWYQQKPGKAPKLLIYDTSKVASGVPSRFSGSGSGTEFTLTISSLQPDDFATYYCQQWSRNSPYTFGQGTKLEIK
notes: crude periplasmic extract from E. coli, His-tagged; also called PM F1-A10 HL
As for B1, the binding result in the test with human PSMA was “binds”.

B2: scFv MP 9076-A9 (scFv)
scFv: QVQLVESGGGLVKPGGSLRLSCAASGFTFSDYYMYWVRQAPGKGLEWVAIISDGGYYTYYSDIIKGRFTISRDNAKNNLYLQMNSLRAEDTAVYYCARGFPLLRHGAMDYWGQGTLVTVSSGGGGSGGGGSGGGGSDIQMTQSPSSLSASVGDRVTITCKASQNVDTNVAWYQQKPGQAPKSLIYSASYRYSDVPSRFSGSASGTDFTLTISSVQSEDFATYYCQQYDSYPYTFGGGTKLEIK
notes: crude periplasmic extract from E. coli, His-tagged (His detection); also called PM76A9-HL
For B2, the binding result in the test with human PSMA is given as “binds”.

B3: scFv MP 9076-B10 (scFv)
scFv: B2 scFv with G16E, N78S, R87K
notes: crude periplasmic extract from E. coli, His-tagged; 610 read as B10; also called MP 9076-610; MP9076-610 (so in the source)
As to B3, in the test with human PSMA, the binding result is on record as “binds”.

B4: A2J HLP (scFv)
scFv: EVQLLESGGGLVQPGGSLKLSCAASGFTFNVYAMNWVRQAPGKGLEWVARIRSKYNNYATYYADSVKKRFTISRDDSKNTAYLQMNNLKTEDTAVYYCVRHGNFGNSYLSWWAYWGQGTLVTVSSGGGGSGGGGSGGGGSELVVTQEPSLTVSPGGTVTLTCRSSTGAVTSGYYPNWVQQKPGQAPRGLIGATDMRPSGTPARFSGSLLGGKAALTLSGVQPEDEAEYYCALWYSNRWVFGGGTKLTVL
notes: crude periplasmic preparation; also called VH-VL-P of A2J
B4: the binding result in the test with 1-27 CD3-Fc was “binds”.

B5: E2M HLP (scFv)
scFv: B4 scFv with V31G, K68E, G102R, W112F
notes: crude periplasmic preparation; also called VH-VL-P of E2M
B5: the binding result with 1-27 CD3-Fc is on record as “binds”; in the test with swine 1-27 CD3ε-EpCAM, “no binding”; in the test with tamarin 1-27 CD3ε-EpCAM it was “binds”; with marmoset 1-27 CD3ε-EpCAM, “binds”; in the test with human 1-27 CD3ε-EpCAM, “binds”; in test [1], “binds”.

Values taken from patent US20190169310A1 (Amgen, published 2019).
